The values that follow come from US20170081401A1 (CLOSED JOINT STOCK COMPANY BIOCAD, published 2017).

Test [1] addresses T1, human IL-17A (human, UniProt Q16552 20-155, limits assumed).
T1 construct: also called human recombinant IL-17
Description: BLI (OctetRed 96), BCD085 on AR2G sensors, human IL-17A as analyte, row 'Concentration (nm)' 34,3; 1:1 model; R^2 0,937248.
Description: (§1) The affinity of BCD085 binding with human, monkey and rat IL-17A was analyzed on OctetRed 96 (ForteBio). BCD085 was non-specifically immobilized on the surface of amine reactive second-generation sensors (AR2G) according to the standard protocol described in the manufacturer's manual. The test was conducted at a temperature of 30° C. and using PBS with 0.1% Tween-20 and 0.1% BSA as a working buffer.
(§2) Binding curves (after subtracting a reference signal) were analyzed using Octet Data Analysis software (Version 7.0) in accordance with the standard procedure and using 1:1 interaction model.

The target of test [2] is T2, monkey IL-17A (Macaca mulatta) (Macaca mulatta, UniProt F6T3G5 24-155). Description: BLI (OctetRed 96), BCD085 on AR2G sensors, monkey IL-17A as analyte, row 'Concentration (nm)' 34,4; 1:1 model; R^2 0,964905.
Description: as §1, §2
Test [3] has as its target T1, human IL-17A. Description: BLI (OctetRed 96), BCD085 on AR2G sensors, human IL-17A as analyte, row 'Concentration (nm)' 68,6; 1:1 model; R^2 0,973327.
Description: as §1, §2
The target in test [4] is T2, monkey IL-17A (Macaca mulatta). Description: BLI (OctetRed 96), BCD085 on AR2G sensors, monkey IL-17A as analyte, row 'Concentration (nm)' 17,2; 1:1 model; R^2 0,983707.
Description: as §1, §2
The next test deals with T3, rat IL-17A (rat, UniProt Q61453 18-150, limits assumed).
T3 sequence (looked up): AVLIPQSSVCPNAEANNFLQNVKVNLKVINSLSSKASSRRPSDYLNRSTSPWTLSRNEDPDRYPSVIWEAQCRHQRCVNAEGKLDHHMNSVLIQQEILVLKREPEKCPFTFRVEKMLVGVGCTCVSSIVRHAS
Description: BLI, OctetRed 96, BCD085 immobilized on AR2G sensors, IL-17A as analyte.

The target in test [5] is T2, monkey IL-17A (Macaca mulatta). Description: BLI (OctetRed 96), BCD085 on AR2G sensors, monkey IL-17A as analyte, row 'Concentration (nm)' 68,7; 1:1 model; R^2 0,956946.
Description: as §1, §2
The target of test [6] is T1, human IL-17A. Description: BLI, OctetRed 96, BCD085 immobilized on AR2G sensors; human against monkey IL-17A.
Description: as §1, §2
The target of test [7] is T1, human IL-17A. Description: cell-based or functional assay.

T1 sequence (Q16552 20-155 limits assumed): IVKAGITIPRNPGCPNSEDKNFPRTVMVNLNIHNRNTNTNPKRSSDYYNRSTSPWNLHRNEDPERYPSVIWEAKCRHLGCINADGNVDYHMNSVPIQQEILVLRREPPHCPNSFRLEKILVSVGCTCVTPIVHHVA
T2 sequence (F6T3G5 entry or part of it): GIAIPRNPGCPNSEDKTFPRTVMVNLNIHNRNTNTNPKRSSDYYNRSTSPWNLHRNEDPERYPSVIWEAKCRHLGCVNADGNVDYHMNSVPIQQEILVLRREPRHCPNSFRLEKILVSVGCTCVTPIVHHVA
Description for rat IL-17A: as §1, §2

B1: BCD085 monoclonal anti-IL-17A antibody (antibody, V domains shown)
VH: QVQLVQSGGGLVQPGGSLRLSCAADGFTFSNYAMSWVRQAPGKGLEWVSRIEGGIGSSTYAVDSVKDRFTISRDDAKNTLYLQMSSLKTEDTAVYYCAVNYYGMYYWGQGTLVTVSS
VL: QSVLTQPPSVSVAPGKTVTISCTGTSEDVGFGNYVSWYQHLPGTAPKLLIYRVNTRPSGVPDRFSGSQSGNTASLTISGLQAEDEADYYCSSYKAGGTYVFGGGTKLTVLG
notes: Full-length antibody produced in CHO-S cells; also called the candidate; monoclonal anti-IL-17A antibody of the invention
Consider B1, for which the Kd in the test with human IL-17A [1] was less than 0.001 nM; in test [2], 4.15 nM; with human IL-17A [3], less than 0.001 nM; in test [4] it was 2.22 nM; in test [5], 5.97 nM. Further, in the test with rat IL-17A, the binding result is listed as “no binding (tested: 126 nM (highest concentration titrated))”. Moreover, in the test with human IL-17A [6], the “fold stronger affinity than to monkey IL-17A” value was found to be 1000 fold. Besides, in the test with human IL-17A [7], the “IC50, blocking of IL-17-induced IL-6 production by human HT1080 cells (40 ng/ml IL-17 + 20 ng/ml TNF-alpha), IL-6 measured by ELISA” value came to 0.04 nM.
